The source of these data is patent publication US8936785 (ESBATECH AN ALCON BIOMEDICAL RESEARCH UNIT, dated 2015).

This experiment addresses TNFα (tumour necrosis factor alpha) (UniProt P01375 77-233, limits assumed). Nature of the experiment: cell-based or functional assay.

Numbering of substitutions follows the chain as printed.

TNFα (tumour necrosis factor alpha), sequence (P01375 77-233 limits assumed): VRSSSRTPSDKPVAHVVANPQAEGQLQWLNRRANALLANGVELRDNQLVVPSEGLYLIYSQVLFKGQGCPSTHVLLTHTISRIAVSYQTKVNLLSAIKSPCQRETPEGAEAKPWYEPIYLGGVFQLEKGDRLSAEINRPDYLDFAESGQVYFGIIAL

B1: TB-H_F68V_F70L (scFv)
scFv: DIVMTQSPSSLSASVGDRVTLTCTASQSVSNDVVWYQQRPGKAPKLLIYSAFNRYTGVPSRFSGRGYGTDFTLTISSLQPEDVAVYYCQQDYNSPRTFGQGTKLEVKRGGGGSGGGGSGGGGSSGGGSQVQLVQSGAEVKKPGASVKVSCTASGYTFTHYGMNWVRQAPGKGLEWMGWINTYTGEPTYADKFKDRVTLSLETSASTVYMELTSLTSDDTAVYYCARERGDAMDYWGQGTLVTVSS
Consider B1, for which the “Relative potency: EC50X/EC50ESBA105, L929 cells” value was found to be 1.28 ratio EC50X/EC50ESBA105.

B2: TB-H_F70L (scFv)
scFv: B1 scFv with V196F
For B2, the “Relative potency: EC50X/EC50ESBA105, L929 cells” value is 2.7 ratio EC50X/EC50ESBA105.
